For assay [1], the target named is histone H1 present on surfaces of apoptotic cells (apoptotic SNU16 human stomach cancer cells) (human) (UniProt P07305). As to the kind of experiment: flow cytometry, FITC-peptide on SNU16 cells treated with cetuximab alone for 24 h.
Assay [2] shares this target. Briefly: flow cytometry, FITC-peptide on SNU16 cells treated with cisplatin alone for 24 h.
For assay [3] the target is unchanged. Briefly: flow cytometry, FITC-peptide on SNU16 cells treated with cisplatin and cetuximab in combination for 24 h.

Our source for the percentage of apoptotic cells detected (peptide-bound fluorescent cells) values is patent US20170340698A1, “CYCLIC PEPTIDE SPECIFICALLY BINDING TO APOPTOTIC CELLS AND USE THEREOF” (KYUNGPOOK NATIONAL UNIVERSITY INDUSTRY-ACADEMIC COOPERATION …, priority 2014, published 2017).

Turning to “cyclic form of ApoPep-1 (cyclo[Cys-Gln-Arg-Pro-Pro-Arg-Cys] peptide)”, the percentage of apoptotic cells detected (peptide-bound fluorescent cells) is 49% in assay [1], 56% in assay [2] and 78% in assay [3].
Consider “linear form of ApoPep-1 (CQRPPR) (peptide)”, for which the percentage of apoptotic cells detected (peptide-bound fluorescent cells) in assay [1] came to 25%; in assay [2], 28%; in assay [3], 34%.
